Assay results: PMC2172719

Target: Ufd1–Npl4ΔZF complex (UniProt Q9ES53)
Assay: co-IP

polyubiquitin chains with lysine 63 linkages (from UniProt P0CG53 1-76)
percent of the input material bound: < 5%
